According to paper PMC10569242, “VvWRKY5 enhances white rot resistance in grape by promoting the jasmonic acid pathway”:

T1: VvWRKY5-HIS (Vitis vinifera, UniProt A0ABY9BGE3 8-330)
T1 sequence: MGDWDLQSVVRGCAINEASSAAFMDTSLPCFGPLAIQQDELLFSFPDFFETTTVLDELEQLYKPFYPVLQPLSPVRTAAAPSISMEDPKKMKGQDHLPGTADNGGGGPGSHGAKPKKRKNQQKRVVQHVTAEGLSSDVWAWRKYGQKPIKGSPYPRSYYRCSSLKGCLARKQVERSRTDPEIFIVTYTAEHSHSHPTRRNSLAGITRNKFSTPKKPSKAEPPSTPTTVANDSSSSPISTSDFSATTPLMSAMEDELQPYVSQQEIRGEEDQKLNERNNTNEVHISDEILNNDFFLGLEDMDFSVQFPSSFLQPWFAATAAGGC


Target: T1, VvWRKY5-HIS
Assay: EMSA; unlabeled cold probe competitor 100x/200x; LightShift Chemiluminescent EMSA Kit (Beyotime); buffer, salt, pH and temperature not stated
Details: protein: recombinant; tags: His (pET-32a(+) fusion); blunt

Row | Binder | binding result
1 | VvMYC2 W-box probe (dsDNA) DNA 1: TAGGGTGGGGATTTGACCTGGGTCTGGAGATTCG DNA 2: CGAATCTCCAGACCCAGGTCAAATCCCCACCCTA | binds
2 | VvJAZ2 W-box probe (dsDNA) DNA 1: TAAATCCTCACATCGGGTCAAGGATCGAGTATGC DNA 2: GCATACTCGATCCTTGACCCGATGTGAGGATTTA | binds
